Assay results reported in article PMC7305236 (Nature Communications, 2020).
No end group written: not given here.

target: ACKR3 C-terminally tagged with SmBiT (human, UniProt P25106 1-362); test: cell-based or functional assay
Sequence (P25106 whole entry): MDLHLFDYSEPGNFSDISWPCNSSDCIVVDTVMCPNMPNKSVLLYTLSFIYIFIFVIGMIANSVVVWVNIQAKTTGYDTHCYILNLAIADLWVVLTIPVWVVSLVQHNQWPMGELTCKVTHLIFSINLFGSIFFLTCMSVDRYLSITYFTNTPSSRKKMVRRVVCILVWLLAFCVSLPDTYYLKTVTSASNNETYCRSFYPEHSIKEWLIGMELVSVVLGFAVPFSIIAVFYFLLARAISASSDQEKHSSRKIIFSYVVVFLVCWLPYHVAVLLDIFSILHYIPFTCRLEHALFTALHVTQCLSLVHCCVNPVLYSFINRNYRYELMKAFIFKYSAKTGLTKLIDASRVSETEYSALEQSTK

Question: How did the “β-arrestin-1 recruitment (NanoBiT, U87 cells): EC50” value turn out when FGGFMRRK-NH2 (designed binder) was run?
Answer: Its value is 0.61 nM.

target: T1, atypical chemokine receptor ACKR3 (formerly CXCR7) (human, UniProt P25106 1-362); test: cell-based or functional assay
T1 sequence (P25106 whole entry): as above

Question: Which “Supplementary Table 4: EC50 of β-arrestin-1 recruitment to ACKR3, U87 cells” value does the source give for YGGFMRRV-NH2 [Adrenorphin] here?
Answer: The value was 109 nM.

target: mu opioid receptor (MOR) (human, UniProt P35372 1-400); test: cell-based or functional assay
Sequence (P35372 whole entry): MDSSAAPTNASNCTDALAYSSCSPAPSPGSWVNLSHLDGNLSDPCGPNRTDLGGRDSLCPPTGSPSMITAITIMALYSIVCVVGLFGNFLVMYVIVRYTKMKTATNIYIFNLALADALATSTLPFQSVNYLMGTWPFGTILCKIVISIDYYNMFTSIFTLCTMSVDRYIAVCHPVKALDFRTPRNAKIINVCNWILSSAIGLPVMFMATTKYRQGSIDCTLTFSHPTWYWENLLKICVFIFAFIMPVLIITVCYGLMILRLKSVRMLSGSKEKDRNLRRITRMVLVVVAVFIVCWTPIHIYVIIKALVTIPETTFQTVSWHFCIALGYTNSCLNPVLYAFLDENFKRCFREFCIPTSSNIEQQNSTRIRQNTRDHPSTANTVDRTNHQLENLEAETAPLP

Question: YGGFMRRV-NH2 [Adrenorphin] was tested. Which “Supplementary Table 4: EC50 of β-arrestin-1 recruitment to MOR, U87 cells” value did it give?
Answer: The value was 101 nM.

target: delta opioid receptor (DOR) (human, UniProt P41143 1-372); test: cell-based or functional assay
Sequence (P41143 whole entry, stated change not applied): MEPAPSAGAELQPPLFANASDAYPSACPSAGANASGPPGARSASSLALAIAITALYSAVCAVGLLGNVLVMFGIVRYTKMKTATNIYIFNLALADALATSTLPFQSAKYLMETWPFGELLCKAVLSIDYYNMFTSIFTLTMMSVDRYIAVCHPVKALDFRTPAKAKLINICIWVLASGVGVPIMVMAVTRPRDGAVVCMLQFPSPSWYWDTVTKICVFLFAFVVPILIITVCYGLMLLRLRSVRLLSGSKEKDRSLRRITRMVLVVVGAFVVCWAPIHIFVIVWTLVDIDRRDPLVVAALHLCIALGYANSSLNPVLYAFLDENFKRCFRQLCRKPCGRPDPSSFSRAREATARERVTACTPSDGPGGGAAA

Question: YGGFMRRV-NH2 [Adrenorphin] was tested. Which “Supplementary Table 4: EC50 of β-arrestin-1 recruitment to DOR, U87 cells” value did it give?
Answer: Its value is 323 nM.

target: kappa opioid receptor (KOR) (human, UniProt P41145 1-380); test: cell-based or functional assay
Sequence (P41145 whole entry): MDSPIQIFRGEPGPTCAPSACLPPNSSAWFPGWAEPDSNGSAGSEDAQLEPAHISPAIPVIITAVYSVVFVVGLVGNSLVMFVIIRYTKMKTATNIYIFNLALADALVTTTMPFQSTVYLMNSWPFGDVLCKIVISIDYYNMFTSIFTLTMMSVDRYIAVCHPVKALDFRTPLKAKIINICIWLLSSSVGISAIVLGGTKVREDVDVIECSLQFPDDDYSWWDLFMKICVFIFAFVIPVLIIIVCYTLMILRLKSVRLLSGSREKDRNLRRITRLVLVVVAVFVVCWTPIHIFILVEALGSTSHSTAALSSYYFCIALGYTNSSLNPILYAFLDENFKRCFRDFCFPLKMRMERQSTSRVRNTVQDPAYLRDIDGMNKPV

Question: Which “Supplementary Table 4: EC50 of β-arrestin-1 recruitment to KOR, U87 cells” value does the source give for YGGFMRRV-NH2 [Adrenorphin] here?
Answer: The value was 65.6 nM.

target: mouse ACKR3 (mouse, UniProt P56485 1-362); test: cell-based or functional assay
Sequence (P56485 whole entry): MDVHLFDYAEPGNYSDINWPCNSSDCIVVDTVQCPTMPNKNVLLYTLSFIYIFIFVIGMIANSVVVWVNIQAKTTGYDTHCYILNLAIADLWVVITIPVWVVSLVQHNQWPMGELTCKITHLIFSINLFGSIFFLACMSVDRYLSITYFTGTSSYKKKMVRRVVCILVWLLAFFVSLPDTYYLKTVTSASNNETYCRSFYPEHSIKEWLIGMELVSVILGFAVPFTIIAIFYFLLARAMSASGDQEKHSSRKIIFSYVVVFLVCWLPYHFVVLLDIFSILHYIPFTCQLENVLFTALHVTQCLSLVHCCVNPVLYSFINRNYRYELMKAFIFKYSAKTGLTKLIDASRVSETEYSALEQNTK

Question: FGGFMRRK-NH2 was tested. Which “Supplementary Table 6: EC50 of β-arrestin-1 recruitment to mACKR3, U87 cells” value did it give?
Answer: The value was 2.31 nM.

target: T1, atypical chemokine receptor ACKR3 …; test: cell-based or functional assay; remark: another data set of the same source

Question: Which “Supplementary Table 9: EC50 of β-arrestin-1 recruitment to ACKR3, HEK cells” value does the source give for YGGFLRRIRPKLKWDNQ [Dynorphin A] here?
Answer: The value was 110 nM.

Question: What about the “Supplementary Table 9: EC50 of β-arrestin-2 recruitment to ACKR3, U87 cells” value (“Supplementary Table 9: EC50 … U87 cells” for short) of the same binder?
Answer: Its value is 97.6 nM.

Question: Which results are given for FGGFTGARKSARK-NH2 [Nociceptin 1-13-NH2]?
Answer: Supplementary Table 9: EC50 of β-arrestin-1 recruitment to ACKR3, CHO cells: ~10000 nM; Supplementary Table 9: EC50 of β-arrestin-1 recruitment to ACKR3, HEK cells: ~10000 nM; Supplementary Table 9: EC50 of β-arrestin-2 recruitment to ACKR3, U87 cells: ~10000 nM

Question: Which results are given for YGGFMRRV-NH2 [Adrenorphin]?
Answer: Supplementary Table 9: EC50 of β-arrestin-1 recruitment to ACKR3, CHO cells: 22.5 nM; Supplementary Table 9: EC50 of β-arrestin-1 recruitment to ACKR3, HEK cells: 72.6 nM; Supplementary Table 9: EC50 of β-arrestin-2 recruitment to ACKR3, U87 cells: 81.5 nM

Question: With FGGFTGARKSARKLANQ [Nociceptin] as the binder, how does the “Supplementary Table 9: EC50 of β-arrestin-1 recruitment to ACKR3, CHO cells” value read?
Answer: Its value is roughly 10000 nM.

Question: And the “Supplementary Table 9: EC50 … U87 cells” value?
Answer: The value was greater than 10000 nM.

Question: With FGGFTGARKSARK-NH2 (also: ψ(CH2-NH) bond between Phe1 and Gly2) [[Phe1Ψ(CH2-NH)-gly2]nociceptin-(1-13)-NH2] as the binder, how does the “Supplementary Table 9: EC50 of β-arrestin-1 recruitment to ACKR3, CHO cells” value read?
Answer: The value was roughly 5000 nM.

Question: And the “Supplementary Table 9: EC50 of β-arrestin-1 recruitment to ACKR3, HEK cells” value?
Answer: The value was 3760 nM.

Question: What about the “Supplementary Table 9: EC50 … U87 cells” value of the same binder?
Answer: Its value is 4340 nM.

Question: What does the source list for YGGFLRRQFKVVT [Dynorphin B]?
Answer: Supplementary Table 9: EC50 of β-arrestin-1 recruitment to ACKR3, CHO cells: ~1000 nM; Supplementary Table 9: EC50 of β-arrestin-1 recruitment to ACKR3, HEK cells: 673 nM; Supplementary Table 9: EC50 of β-arrestin-2 recruitment to ACKR3, U87 cells: 908 nM

Question: What does the source list for YGGFMRRVGRPEWWMDYQKRYG [BAM22]?
Answer: Supplementary Table 9: EC50 of β-arrestin-1 recruitment to ACKR3, CHO cells: 12.5 nM; Supplementary Table 9: EC50 of β-arrestin-1 recruitment to ACKR3, HEK cells: 23.2 nM; Supplementary Table 9: EC50 of β-arrestin-2 recruitment to ACKR3, U87 cells: 22.9 nM

target: T1, atypical chemokine receptor ACKR3 …; test: flow cytometry on cells

Question: Which EC50 does the source give for FGGFMRRK(Cy5) [LIH383-Cy5] here?
Answer: Its EC50 is 6.65 nM.

target: T1, atypical chemokine receptor ACKR3 …; test: flow cytometry on cells; remark: another data set of the same source

Question: Which IC50 does the source give for YGGFLRRIRPKLKWDNQ [Dynorphin A] here?
Answer: Its IC50 is 85.3 nM.

Question: How did the IC50 turn out when FGGFMRRK-NH2 was run?
Answer: The IC50 was 4 nM.

Question: Which IC50 does the source give for YPWF-NH2 [Endomorphin-1] here?
Answer: Its IC50 is greater than 10000 nM.

Question: Which IC50 does the source give for FGGFTGARKSARK-NH2 [Nociceptin 1-13-NH2] here?
Answer: Its IC50 is greater than 10000 nM.

Question: YGGFMRRV-NH2 [Adrenorphin] was tested. Which IC50 did it give?
Answer: Its IC50 is 41.2 nM.

Question: With GGFLRRIRPKLK-NH2 [Dynorphin A 2-13-NH2] as the binder, how does the IC50 read?
Answer: Its IC50 is greater than 10000 nM.

Question: How did the IC50 turn out when FGGFTGARKSARK-NH2 (also: ψ(CH2-NH) bond between Phe1 and Gly2) [[Phe1Ψ(CH2-NH)-gly2]nociceptin-(1-13)-NH2] was run?
Answer: Its IC50 is greater than 10000 nM.

Question: Which IC50 does the source give for GGFLRRIRPKLKWDNQ [Dynorphin A 2-17] here?
Answer: Its IC50 is roughly 10000 nM.

Question: YGGFLRRQFKVVT [Dynorphin B] was tested. Which IC50 did it give?
Answer: The IC50 was roughly 1000 nM.

Question: With YGGFMRRVGRPEWWMDYQKRYG [BAM22] as the binder, how does the IC50 read?
Answer: The IC50 was 31.3 nM.
